From publication PMC10798628

Columns and labels:
[1] = target: receptor for activated protein C kinase 1 (RACK1) (human (endogenous in Caco-2)) (UniProt P63244)
[2] = target: receptor for activated protein C kinase 1 (RACK1) (human (endogenous in Caco-2)) (UniProt P63244); remark: listed apart in the source

Substance | inhibition rate of anti-RACK1 antibody on T. spiralis IIL invasion of the Caco-2 monolayer, compared to the PBS group [1] | inhibition rate of the RACK1 inhibitor HO on T. spiralis IIL invasion of the Caco-2 monolayer, compared to the PBS group [1] | expression level of RACK1 in Caco-2 cells treated with rTsSPc, Western blot, increase compared to the PBS group [2] | p-ERK1/2 level in Caco-2 cells treated with rTsSPc, Western blot, increase compared to the PBS group [2]
recombinant Trichinella spiralis serine proteinase with GST tag (rTsSPc) | 5.12% | 7.37% |  | 
recombinant Trichinella spiralis serine proteinase with GST tag (rTsSPc) (enzyme) |  |  | 2.11 folds | 18.3 folds
